Assay results as given in PMC7666189.

Substrate: O=C(/C=C/c1ccc(O)c(O)c1)O[C@@H]1C[C@](O)(C(=O)O)C[C@@H](O)[C@H]1O
Assay: purified protein
Details: 5-CQA as sole substrate (acyl donor and acceptor), 0-30 mM, enzyme from N. benthamiana, optimum pH 6.3 and 39.9 °C, pH and temperature of the Km assay not given

B1: IbICS (Ipomoea batatas) (protein)
chain: CYSAVFGFGDSLTDAGNLIRLEPDGTVPHMYFPPYGETYFDKPTGRCSDGRLIVDLIAQHYGLPLPPPSIPASLEGDKNRLRAGVNFAVVGSRALDAQFYEQRDIFDTVTNVSMTDQLNWFKELLPSLCSSPHDCKELLDGSLFVLGEFGGNDYTHSLLSGKGINVIRPFIPIVTRAIAQAVHELVELGARTVMIPSVLPLGCAASYLTYYPSPNPDDYDELGCLIWVNEMASYHNQLLQQQLAHVRELHPYANIVFADIYNAAMEVYQGPDTYGFSGGALRACCGGGGPYNFNTSAQCGNEGATACDNPSSYVNWDGYHLTEAAYQCITTGLLEGPYTYPRMKNLCRFDSRKTSRVAQI
Question: With B1 as the protein, how does the Km read?
Answer: Its Km is 3.5 mM.
